± gives the standard deviation of the averaged measurements.
Experiment: total protein half-life in vivo (active degradation + dilution); higher = more stable protein
[1] = E. coli NCM3722 delta-clpP delta-lon delta-hslV, growth: N-lim chemostat, doubling time 6 h
[2] = E. coli NCM3722 delta-clpP, growth: N-lim chemostat, doubling time 6 h
[3] = E. coli NCM3722 delta-hslV, growth: N-lim chemostat, doubling time 6 h
[4] = E. coli NCM3722 delta-lon, growth: N-lim chemostat, doubling time 6 h
[5] = E. coli NCM3722 delta-smpB, growth: N-lim chemostat, doubling time 6 h
[6] = wild type E. coli NCM3722, growth: C-lim chemostat, doubling time 3 h
[7] = wild type E. coli NCM3722, growth: C-lim chemostat, doubling time 6 h
[8] = wild type E. coli NCM3722, growth: C-lim chemostat, doubling time 12 h
[9] = wild type E. coli NCM3722, growth: N-lim chemostat, doubling time 6 h
[10] = wild type E. coli NCM3722, growth: N-lim chemostat, doubling time 12 h
[11] = wild type E. coli NCM3722, growth: P-lim chemostat, doubling time 6 h
[12] = wild type E. coli NCM3722, growth: P-lim chemostat, doubling time 12 h

MRRVNILCSFALLFASHTSLAVTYPLPPEGSRLVGQSFTVTVPDHNTQPLETFAAQYGQGLSNMLEANPGADVFLPKSGSQLTIPQQLILPDTVRKGIVVNVAEMRLYYYPPDSNTVEVFPIGIGQAGRETPRNWVTTVERKQEAPTWTPTPNTRREYAKRGESLPAFVPAGPDNPMGLYAIYIGRLYAIHGTNANFGIGLRVSQGCIRLRNDDIKYLFDNVPVGTRVQIIDQPVKYTTEPDGSNWLEVHEPLSRNRAEYESDRKVPLPVTPSLRAFINGQEVDVNRANAALQRRSGMPVQISSGSRQMF
total protein half-life in vivo [1]: 5.58 ± 1.1 h | total protein half-life in vivo [2]: 6.17 ± 0.48 h | total protein half-life in vivo [3]: 5.997 ± 0.037 h | total protein half-life in vivo [4]: 6.9 ± 1 h | total protein half-life in vivo [5]: 5.83 ± 0.5 h | total protein half-life in vivo [6]: 3.35 ± 0.46 h | total protein half-life in vivo [7]: 5.64 ± 0.53 h | total protein half-life in vivo [8]: 10.128 ± 0.0088 h | total protein half-life in vivo [9]: 6.43 ± 0.88 h | total protein half-life in vivo [10]: 11.4 ± 0.34 h | total protein half-life in vivo [11]: 5.24 ± 0.69 h | total protein half-life in vivo [12]: 11.3 ± 0.51 h

MRSAQVYRWQIPMDAGVVLRDRRLKTRDGLYVCLREGEREGWGEISPLPGFSQETWEEAQSVLLAWVNNWLAGDCELPQMPSVAFGVSCALAELTDTLPQAANYRAAPLCNGDPDDLILKLADMPGEKVAKVKVGLYEAVRDGMVVNLLLEAIPDLHLRLDANRAWTPLKGQQFAKYVNPDYRDRIAFLEEPCKTRDDSRAFARETGIAIAWDESLREPDFAFVAEEGVRAVVIKPTLTGSLEKVREQVQAAHALGLTAVISSSIESSLGLTQLARIAAWLTPDTIPGLDTLDLMQAQQVRRWPGSTLPVVEVDALERLL
total protein half-life in vivo [3]: 3.779 ± 0.0063 h | total protein half-life in vivo [4]: 4.33 ± 0.7 h | total protein half-life in vivo [5]: 3.7 ± 0.25 h | total protein half-life in vivo [6]: 3.25 ± 0.19 h | total protein half-life in vivo [7]: 5.71 ± 0.44 h | total protein half-life in vivo [8]: 13.2 h | total protein half-life in vivo [9]: 3.88 ± 0.14 h | total protein half-life in vivo [10]: 6.68 ± 0.4 h | total protein half-life in vivo [11]: 5.7 ± 0.073 h | total protein half-life in vivo [12]: 11.5 ± 0.8 h

MRSFSQLWPTLKRLLAYGSPWRKPLGIAVLMMWVAAAAEVSGPLLISYFIDNMVAKNNLPLKVVAGLAAAYVGLQLFAAGLHYAQSLLFNRAAVGVVQQLRTDVMDAALRQPLSEFDTQPVGQVISRVTNDTEVIRDLYVTVVATVLRSAALVGAMLVAMFSLDWRMALVAIMIFPVVLVVMVIYQRYSTPIVRRVRAYLADINDGFNEIINGMSVIQQFRQQARFGERMGEASRSHYMARMQTLRLDGFLLRPLLSLFSSLILCGLLMLFGFSASGTIEVGVLYAFISYLGRLNEPLIELTTQQAMLQQAVVAGERVFELMDGPRQQYGNDDRPLQSGTIEVDNVSFAYRDDNLVLKNINLSVPSRNFVALVGHTGSGKSTLASLLMGYYPLTEGEIRLDGRPLSSLSHSALRQGVAMVQQDPVVLADTFLANVTLGRDISEERVWQALETVQLAELARSMSDGIYTPLGEQGNNLSVGQKQLLALARVLVETPQILILDEATASIDSGTEQAIQHALAAVREHTTLVVIAHRLSTIVDADTILVLHRGQAVEQGTHQQLLAAQGRYWQMYQLQLAGEELAASVREEESLSA [P0AAG5]
total protein half-life in vivo [1]: 6.44 ± 0.43 h | total protein half-life in vivo [2]: 6 ± 0.12 h | total protein half-life in vivo [3]: 4.33 ± 0.16 h | total protein half-life in vivo [4]: 3.97 ± 0.13 h | total protein half-life in vivo [5]: 4.31 ± 0.43 h | total protein half-life in vivo [6]: 2.85 h | total protein half-life in vivo [7]: 4.47 ± 0.42 h | total protein half-life in vivo [8]: 8.8 ± 2.3 h | total protein half-life in vivo [9]: 4.589 ± 0.038 h | total protein half-life in vivo [10]: 6.71 ± 0.085 h | total protein half-life in vivo [11]: 5.09 ± 0.38 h | total protein half-life in vivo [12]: 10.3 ± 0.7 h

MRSIARRTAVGAALLLVMPVAVWISGWRWQPGEQSWLLKAAFWVTETVTQPWGVITHLILFGWFLWCLRFRIKAAFVLFAILAAAILVGQGVKSWIKDKVQEPRPFVIWLEKTHHIPVDEFYTLKRAERGNLVKEQLAEEKNIPQYLRSHWQKETGFAFPSGHTMFAASWALLAVGLLWPRRRTLTIAILLVWATGVMGSRLLLGMHWPRDLVVATLISWALVAVATWLAQRICGPLTPPAEENREIAQREQES [P0A924]
total protein half-life in vivo [1]: 6.18 ± 0.47 h | total protein half-life in vivo [2]: 7.12 ± 0.17 h | total protein half-life in vivo [3]: 7.17 h | total protein half-life in vivo [4]: 5.52 ± 0.8 h | total protein half-life in vivo [5]: 5.95 ± 0.56 h | total protein half-life in vivo [7]: 6.009 ± 0.045 h | total protein half-life in vivo [8]: 14.4 ± 1.7 h | total protein half-life in vivo [9]: 6.36 ± 0.65 h | total protein half-life in vivo [10]: 11.9 ± 0.65 h | total protein half-life in vivo [11]: 6.14 ± 0.54 h | total protein half-life in vivo [12]: 10.7 ± 2 h

MRSSAKQEELVKAFKALLKEEKFSSQGEIVAALQEQGFDNINQSKVSRMLTKFGAVRTRNAKMEMVYCLPAELGVPTTSSPLKNLVLDIDYNDAVVVIHTSPGAAQLIARLLDSLGKAEGILGTIAGDDTIFTTPANGFTVKDLYEAILELFDQEL [P0A6D0]
total protein half-life in vivo [1]: 5.74 h | total protein half-life in vivo [2]: 5.76 ± 0.36 h | total protein half-life in vivo [3]: 5.36 ± 0.18 h | total protein half-life in vivo [4]: 6.26 h | total protein half-life in vivo [5]: 6.3 ± 1.1 h | total protein half-life in vivo [6]: 3.07 ± 0.25 h | total protein half-life in vivo [7]: 5.2 ± 1 h | total protein half-life in vivo [8]: 10.7 ± 1.8 h | total protein half-life in vivo [9]: 5.26 ± 0.67 h | total protein half-life in vivo [10]: 10.5 h | total protein half-life in vivo [11]: 4.85 ± 0.56 h | total protein half-life in vivo [12]: 11.8 ± 0.96 h

MRTFSGKRSTLALAIAGVTAMSGFMAMPEARAEGFIDDSTLTGGIYYWQRERDRKDVTDGDKYKTNLSHSTWNANLDFQSGYAADMFGLDIAAFTAIEMAENGDSSHPNEIAFSKSNKAYDEDWSGDKSGISLYKAAAKFKYGPVWARAGYIQPTGQTLLAPHWSFMPGTYQGAEAGANFDYGDAGALSFSYMWTNEYKAPWHLEMDEFYQNDKTTKVDYLHSFGAKYDFKNNFVLEAAFGQAEGYIDQYFAKASYKFDIAGSPLTTSYQFYGTRDKVDDRSVNDLYDGTAWLQALTFGYRAADVVDLRLEGTWVKADGQQGYFLQRMTPTYASSNGRLDIWWDNRSDFNANGEKAVFFGAMYDLKNWNLPGFAIGASYVYAWDAKPATWQSNPDAYYDKNRTIEESAYSLDAVYTIQDGRAKGTMFKLHFTEYDNHSDIPSWGGGYGNIFQDERDVKFMVIAPFTIF
total protein half-life in vivo [6]: 1.45 h | total protein half-life in vivo [7]: 2.07 h | total protein half-life in vivo [8]: 2.36 h

MRTLLAILLFPLLVQAAGEGMWQASSVGITLNHRGESMSSAPLSTRQPASGLMTLVAWRYQLIGPTPSGLRVRLCSQSRCVELEGQSGTTVAFSGIAAAEPLRFIWEVPGGGRLIPPLKVQRNEVIVNYR
total protein half-life in vivo [7]: 4.74 h | total protein half-life in vivo [8]: 8.78 ± 2.5 h

— the supplement of paper PMC11246515
